Measurements reported in patent US20250002588A1 (DIAGONAL THERAPEUTICS, published 2025).

Each binder was assayed against T1, ALK-1/BMPR-2 receptor pair of the PathHunter U2Os dimerization cells (DiscoverX 93-0962C3) (UniProt P37023 22-503; Q13873 27-1038) (assay: cell-based or functional assay).
T1 sequence (P37023 22-503, chain 1 of 2): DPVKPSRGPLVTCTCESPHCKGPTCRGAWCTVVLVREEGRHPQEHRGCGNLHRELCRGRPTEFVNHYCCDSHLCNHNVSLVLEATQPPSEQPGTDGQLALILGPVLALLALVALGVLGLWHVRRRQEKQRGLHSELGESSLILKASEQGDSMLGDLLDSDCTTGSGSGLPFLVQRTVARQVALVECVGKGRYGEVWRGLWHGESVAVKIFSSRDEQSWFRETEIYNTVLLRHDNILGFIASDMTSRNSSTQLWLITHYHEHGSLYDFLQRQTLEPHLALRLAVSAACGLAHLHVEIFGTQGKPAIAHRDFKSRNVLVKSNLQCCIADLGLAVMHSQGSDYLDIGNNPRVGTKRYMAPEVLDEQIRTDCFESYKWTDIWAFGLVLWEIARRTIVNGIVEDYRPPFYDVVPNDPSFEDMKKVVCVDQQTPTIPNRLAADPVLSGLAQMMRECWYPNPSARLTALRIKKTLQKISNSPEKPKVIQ
T1 sequence (Q13873 27-1038, chain 2 of 2): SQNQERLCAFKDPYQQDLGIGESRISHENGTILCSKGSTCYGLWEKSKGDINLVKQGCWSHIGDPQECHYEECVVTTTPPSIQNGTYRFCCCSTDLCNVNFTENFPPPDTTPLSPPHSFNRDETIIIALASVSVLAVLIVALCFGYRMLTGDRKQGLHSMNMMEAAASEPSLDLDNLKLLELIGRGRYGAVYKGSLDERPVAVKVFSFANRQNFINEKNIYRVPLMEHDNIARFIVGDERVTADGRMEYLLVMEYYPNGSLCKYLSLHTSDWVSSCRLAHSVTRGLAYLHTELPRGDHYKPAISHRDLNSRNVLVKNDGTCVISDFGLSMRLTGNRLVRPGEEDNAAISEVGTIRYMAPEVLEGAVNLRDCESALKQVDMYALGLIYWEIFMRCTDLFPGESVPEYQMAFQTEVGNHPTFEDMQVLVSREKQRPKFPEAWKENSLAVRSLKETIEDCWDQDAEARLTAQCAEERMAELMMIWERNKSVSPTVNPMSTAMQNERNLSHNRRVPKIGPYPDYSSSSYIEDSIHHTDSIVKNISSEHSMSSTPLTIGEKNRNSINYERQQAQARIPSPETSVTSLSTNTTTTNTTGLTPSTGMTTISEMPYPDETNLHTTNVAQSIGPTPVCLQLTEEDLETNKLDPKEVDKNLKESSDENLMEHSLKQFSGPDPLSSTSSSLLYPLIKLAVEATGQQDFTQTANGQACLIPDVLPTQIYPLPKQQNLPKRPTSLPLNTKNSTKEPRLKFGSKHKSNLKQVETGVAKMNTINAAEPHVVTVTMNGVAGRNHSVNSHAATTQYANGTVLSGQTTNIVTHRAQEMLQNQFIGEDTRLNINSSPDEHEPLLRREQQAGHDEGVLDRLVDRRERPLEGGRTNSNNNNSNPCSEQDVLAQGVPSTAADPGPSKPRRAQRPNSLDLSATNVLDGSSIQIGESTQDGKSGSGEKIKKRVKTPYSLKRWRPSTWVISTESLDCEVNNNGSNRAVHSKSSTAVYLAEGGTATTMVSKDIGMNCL

Row | % Emax BMP9 | Emax (RLU) | Binder
1 | 76% | 1.95e+06 RLU | DGL877 (bispecific antibody) chain 1: not shown chain 2: EVQLLESGGGLVQPGGSLRLSCAASGFTFSDYYMTWIRQAPGKGLEWVSSISGGSTYYADSRKGRFTISRDNSENTLYLQMNSLRAEDTAVYYCARDFGVAGWFGQYGMDVWGQGTLVTVSSGGGGSGGGGSGGGGSQSVLTQPPSASGTPGQRVTISCTGSASNIGAGYDVHWYQQLPGTAPKLLIYRSNQRPSGVPDRFSGSKSGTSASLAISGLRSEDEADYYCSSYAGNYNLVFGGGTKLTVLDKTHTCPPCPAPEAAGAPSVFLFPPKPKDTLMISRTPEVTCVVVDVSHEDPEVKFNWYVDGVEVHNAKTKPREEQYNSTYRVVSVLTVLHQDWLNGKEYKCKVSNKALPAPIEKTISKAKGQPREPQVCTLPPSRDELTKNQVSLSCAVKGFYPSDIAVEWESNGQPENNYKTTPPVLDSDGSFFLVSKLTVDKSRWQQGNVFSCSVMHEALHNHYTQKSLSLSPGWSHPQFEK
2 | 66% | 1.68e+06 RLU | DGL880 (bispecific antibody) chain 1: not shown chain 2: EVQLLESGGGLVQPGGSLRLSCAASGFTFSDYYMTWIRQAPGKGLEWVSSISGGSTYYADSRKGRFTISRDNSENTLYLQMNSLRAEDTAVYYCARDFGVAGWFGQYGMDVWGQGTLVTVSSGGGGSGGGGSGGGGSQSVLTQPPSASGTPGQRVTISCTGSASNIGAGYDVHWYQQLPGTAPKLLIYRSNQRPAGVPDRFSGSKSGTSASLAISGLRSEDEADYYCSSYAGLYNLVFGGGTKLTVLDKTHTCPPCPAPEAAGAPSVFLFPPKPKDTLMISRTPEVTCVVVDVSHEDPEVKFNWYVDGVEVHNAKTKPREEQYNSTYRVVSVLTVLHQDWLNGKEYKCKVSNKALPAPIEKTISKAKGQPREPQVCTLPPSRDELTKNQVSLSCAVKGFYPSDIAVEWESNGQPENNYKTTPPVLDSDGSFFLVSKLTVDKSRWQQGNVFSCSVMHEALHNHYTQKSLSLSPGWSHPQFEK
3 | 71% | 1.81e+06 RLU | DGL879 (bispecific antibody) chain 1: not shown chain 2: EVQLLESGGGLVQPGGSLRLSCAASGFTFSDYYMTWIRQAPGKGLEWVSSISGGSTYYADSRKGRFTISRDNSENTLYLQMNSLRAEDTAVYYCARDFGVAGWFGQYGMDVWGQGTLVTVSSGGGGSGGGGSGGGGSQSVLTQPPSASGTPGQRVTISCTGSSSNIGAGYDVHWYQQLPGTAPKLLIYRSNQRPSGVPDRFSGSKSGTSASLAISGLRSEDEADYYCSSYAGLYNLVFGGGTKLTVLDKTHTCPPCPAPEAAGAPSVFLFPPKPKDTLMISRTPEVTCVVVDVSHEDPEVKFNWYVDGVEVHNAKTKPREEQYNSTYRVVSVLTVLHQDWLNGKEYKCKVSNKALPAPIEKTISKAKGQPREPQVCTLPPSRDELTKNQVSLSCAVKGFYPSDIAVEWESNGQPENNYKTTPPVLDSDGSFFLVSKLTVDKSRWQQGNVFSCSVMHEALHNHYTQKSLSLSPGWSHPQFEK
4 | 73% | 1.88e+06 RLU | DGL878 (bispecific antibody) chain 1: not shown chain 2: EVQLLESGGGLVQPGGSLRLSCAASGFTFSDYYMTWIRQAPGKGLEWVSSISGGSTYYADSRKGRFTISRDNSENTLYLQMNSLRAEDTAVYYCARDFGVAGWFGQYGMDVWGQGTLVTVSSGGGGSGGGGSGGGGSQSVLTQPPSASGTPGQRVTISCTGSSSNIGAGYDVHWYQQLPGTAPKLLIYRSNQRPAGVPDRFSGSKSGTSASLAISGLRSEDEADYYCSSYAGNYNLVFGGGTKLTVLDKTHTCPPCPAPEAAGAPSVFLFPPKPKDTLMISRTPEVTCVVVDVSHEDPEVKFNWYVDGVEVHNAKTKPREEQYNSTYRVVSVLTVLHQDWLNGKEYKCKVSNKALPAPIEKTISKAKGQPREPQVCTLPPSRDELTKNQVSLSCAVKGFYPSDIAVEWESNGQPENNYKTTPPVLDSDGSFFLVSKLTVDKSRWQQGNVFSCSVMHEALHNHYTQKSLSLSPGWSHPQFEK

Target: T1, ALK-1/BMPR-2 receptor pair of the …
Assay: cell-based or functional assay
Remark: another data set of the same source

Row | % Emax BMP9 | Binder
5 | 78% | DGL945 (bispecific antibody, human IgG1, lambda) heavy: EVQLLESGGGLVQPGGSLRLSCAASGFTFSDYYMTWIRQAPGKGLEWVSSISGGSTYYADSRKGRFTISRDNSENTLYLQMNSLRAEDTAVYYCARDFGVAGWFGQYGMDVWGQGTLVTVSSPLAPEVQLLESGGGLVQPGGSLRLSCAASGFTFSSYAMSWVRQAPGKGLEWVANINQDGSEKNYVDSMRGRFTISRDNSKNTLYLQMNSLRAEDTAVYYCAREFDYWGQGTLVTVSSASTKGPSVFPLAPSSKSTSGGTAALGCLVKDYFPEPVTVSWNSGALTSGVHTFPAVLQSSGLYSLSSVVTVPSSSLGTQTYICNVNHKPSNTKVDKKVEPKSCDKTHTCPPCPAPEAAGAPSVFLFPPKPKDTLYITREPEVTCVVVDVSHEDPEVKFNWYVDGVEVHNAKTKPREEQYNSTYRVVSVLTVLHQDWLNGKEYKCKVSNKALPAPIEKTISKAKGQPREPQVYTLPPSRDELTKNQVSLTCLVKGFYPSDIAVEWESNGQPENNYKTTPPVLDSDGSFFLYSKLTVDKSRWQQGNVFSCSVMHEALHNHYTQKSLSLSPG light: not shown
6 | 78% | DGL1146 (bispecific antibody, human IgG1, lambda) heavy: EVQLLESGGGLVQPGGSLRLSCAASGFTFSDYYMTWIRQAPGKGLEWVSSISGGSTYYADSRKGRFTISRDNSENTLYLQMNSLRAEDTAVYYCARDFGVAGWFGQYGMDVWGQGTLVTVSSPLAPEVQLLESGGGLVQPGGSLRLSCAASGFTFSSYAMSWVRQAPGKGLEWVANINQDGSEKNYVDSMRGRFTISRDNSKNTLYLQMNSLRAEDTAVYYCAREFDYWGQGTLVTVSSASTKGPSVFPLAPSSKSTSGGTAALGCLVKDYFPEPVTVSWNSGALTSGVHTFPAVLQSSGLYSLSSVVTVPSSSLGTQTYICNVNHKPSNTKVDKKVEPKSCDKTHTCPPCPAPEAAGAPSVFLFPPKPKDTLMISRTPEVTCVVVDVSHEDPEVKFNWYVDGVEVHNAKTKPREEQYNSTYRVVSVLTVLHQDWLNGKEYKCKVSNKALPAPIEKTISKAKGQPREPQVYTLPPSRDELTKNQVSLTCLVKGFYPSDIAVEWESNGQPENNYKTTPPVLDSDGSFFLYSKLTVDKSRWQQGNVFSCSVLHEALHSHYTQKSLSLSPG light: not shown
7 | 47% | DGL947 (bispecific antibody, human IgG1, lambda) heavy: EVQLLESGGGLVQPGGSLRLSCAASGFTFSDYYMNWIRQAPGKGLEWVSSISGGSTYYADSVKGRFTISRDNSENTLYLQMNSLRAEDTAVYYCARDFGVAGWFGQFGMDVWGQGTLVTVSSPLAPEVQLLESGGGLVQPGGSLRLSCAASGFTFSSYWMSWVRQAPGKGLEWVANINQDGSEKYYVDSMRGRFTISRDNSKNTLYLQMNSLRAEDTAVYYCAREYDYWGQGTLVTVSSASTKGPSVFPLAPSSKSTSGGTAALGCLVKDYFPEPVTVSWNSGALTSGVHTFPAVLQSSGLYSLSSVVTVPSSSLGTQTYICNVNHKPSNTKVDKKVEPKSCDKTHTCPPCPAPEAAGAPSVFLFPPKPKDTLYITREPEVTCVVVDVSHEDPEVKFNWYVDGVEVHNAKTKPREEQYNSTYRVVSVLTVLHQDWLNGKEYKCKVSNKALPAPIEKTISKAKGQPREPQVYTLPPSRDELTKNQVSLTCLVKGFYPSDIAVEWESNGQPENNYKTTPPVLDSDGSFFLYSKLTVDKSRWQQGNVFSCSVMHEALHNHYTQKSLSLSPG light: not shown
8 | 42% | DGL949 (bispecific antibody, human IgG1, lambda) heavy: EVQLLESGGGLVQPGGSLRLSCAASGFTFSDYYMNWIRQAPGKGLEWVSSISGGSTYYADSVKGRFTISRDNSENTLYLQMNSLRAEDTAVYYCARDFGVAGWFGYYGMDVWGQGTLVTVSSPLAPEVQLLESGGGLVQPGGSLRLSCAASGFTFSSYWMSWVRQAPGKGLEWVANIKQDGSEKNYVDSMRGRFTISRDNSKNTLYLQMNSLRAEDTAVYYCAREFDFWGQGTLVTVSSASTKGPSVFPLAPSSKSTSGGTAALGCLVKDYFPEPVTVSWNSGALTSGVHTFPAVLQSSGLYSLSSVVTVPSSSLGTQTYICNVNHKPSNTKVDKKVEPKSCDKTHTCPPCPAPEAAGAPSVFLFPPKPKDTLYITREPEVTCVVVDVSHEDPEVKFNWYVDGVEVHNAKTKPREEQYNSTYRVVSVLTVLHQDWLNGKEYKCKVSNKALPAPIEKTISKAKGQPREPQVYTLPPSRDELTKNQVSLTCLVKGFYPSDIAVEWESNGQPENNYKTTPPVLDSDGSFFLYSKLTVDKSRWQQGNVFSCSVMHEALHNHYTQKSLSLSPG light: not shown
